Laboratory results from US20060134122A1, “Peptides of syndecan-1 for inhibition of cancer” (priority 2004, published 2006).

What was measured:
αvβ3 integrin = target: T1, αvβ3 integrin (Homo sapiens, UniProt P05106+P06756); test: WOW1 Fab binding (activated αvβ3 integrin), MDA-MB-231; format: cell-based; conditions: cells adherent to mAb B-B4, pre-treated with 1 μg/mL mAb 13; GST-mS1ED 20 μM
T1 construct: endogenous in cells; host or cells: MDA-MB-435 (A4) and MDA-MB-231 (A5) human mammary carcinoma cells
T1 sequence (P06756 31-889 limits assumed): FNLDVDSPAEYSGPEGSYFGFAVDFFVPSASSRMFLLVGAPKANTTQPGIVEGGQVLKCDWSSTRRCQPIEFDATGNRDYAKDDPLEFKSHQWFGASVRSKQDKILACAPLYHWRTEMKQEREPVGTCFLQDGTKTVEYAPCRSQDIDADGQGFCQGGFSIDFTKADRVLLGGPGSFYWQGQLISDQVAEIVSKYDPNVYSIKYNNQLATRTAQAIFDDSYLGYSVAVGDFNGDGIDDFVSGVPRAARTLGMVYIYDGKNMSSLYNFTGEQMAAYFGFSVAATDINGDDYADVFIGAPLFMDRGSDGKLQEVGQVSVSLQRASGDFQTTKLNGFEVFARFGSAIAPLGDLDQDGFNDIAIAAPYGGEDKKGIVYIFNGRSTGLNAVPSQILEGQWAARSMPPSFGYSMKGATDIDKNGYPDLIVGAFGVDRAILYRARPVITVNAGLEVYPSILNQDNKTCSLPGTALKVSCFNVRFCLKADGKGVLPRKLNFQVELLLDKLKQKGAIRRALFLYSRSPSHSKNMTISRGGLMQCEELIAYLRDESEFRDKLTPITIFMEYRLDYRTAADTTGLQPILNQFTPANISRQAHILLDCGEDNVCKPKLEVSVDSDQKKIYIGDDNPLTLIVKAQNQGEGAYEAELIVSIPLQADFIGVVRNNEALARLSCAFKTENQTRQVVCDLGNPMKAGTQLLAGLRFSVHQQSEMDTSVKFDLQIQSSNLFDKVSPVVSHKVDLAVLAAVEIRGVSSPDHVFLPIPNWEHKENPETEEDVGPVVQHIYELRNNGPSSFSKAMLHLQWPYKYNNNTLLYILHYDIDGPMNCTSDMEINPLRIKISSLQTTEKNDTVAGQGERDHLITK
T1 sequence (P06756 891-1048 limits assumed): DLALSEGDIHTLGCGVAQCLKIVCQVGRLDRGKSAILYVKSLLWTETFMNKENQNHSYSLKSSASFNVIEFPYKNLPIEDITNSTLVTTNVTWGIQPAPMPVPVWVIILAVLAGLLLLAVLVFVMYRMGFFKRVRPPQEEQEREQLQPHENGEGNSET
T1 sequence (P05106 27-788): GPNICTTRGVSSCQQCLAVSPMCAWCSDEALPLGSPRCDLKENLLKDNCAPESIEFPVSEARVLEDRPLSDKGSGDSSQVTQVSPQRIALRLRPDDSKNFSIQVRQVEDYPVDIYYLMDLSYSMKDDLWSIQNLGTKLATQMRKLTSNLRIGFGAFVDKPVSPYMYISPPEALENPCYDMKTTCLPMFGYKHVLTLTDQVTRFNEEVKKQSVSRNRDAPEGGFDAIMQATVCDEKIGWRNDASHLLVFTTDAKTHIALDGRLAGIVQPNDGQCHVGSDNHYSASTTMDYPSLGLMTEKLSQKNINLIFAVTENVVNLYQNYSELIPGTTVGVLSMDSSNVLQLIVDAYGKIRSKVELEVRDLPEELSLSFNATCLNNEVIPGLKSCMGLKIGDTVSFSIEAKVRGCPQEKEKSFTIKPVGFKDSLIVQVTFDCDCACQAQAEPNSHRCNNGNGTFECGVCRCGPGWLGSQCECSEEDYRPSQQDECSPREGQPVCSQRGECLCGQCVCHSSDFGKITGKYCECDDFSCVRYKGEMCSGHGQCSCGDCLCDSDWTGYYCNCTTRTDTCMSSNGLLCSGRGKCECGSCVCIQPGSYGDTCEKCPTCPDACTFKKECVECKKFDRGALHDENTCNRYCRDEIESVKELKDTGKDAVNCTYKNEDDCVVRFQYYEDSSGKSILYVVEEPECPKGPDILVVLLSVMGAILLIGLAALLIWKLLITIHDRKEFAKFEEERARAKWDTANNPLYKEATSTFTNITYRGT
Experimental: FIGS. 2A-C—Sdc-1 adhesion-mediated cell spreading correlates with αvβ3 integrin. expression and activity. (FIG. 2A) FACS analysis of αvβ3 integrin expression (mAb LM609) in human mammary carcinoma cells against an IgG isotype control. (FIG. 2B) Depicted on split panels are phalloidin-stained MDA-MB-435 (upper half) and MCF-7 (lower half) cells 2 h after plating on wells coated with mAb B-B4 in plating medium alone or medium containing either 30 μg/mL mAb LM609, 1 μg/mL mAb 13 or 20 μM GST-mS1ED. Bar, 50 μm. (FIG. 2C) Untreated MDA-MB-435, MDA-MB-231 and MCF-7 cells (columns 1 and 4) and cells pretreated in suspension with 1 μg/mL mAb 13 (columns 2 and 3) were seeded on wells coated with either mAb B-B4 or COL I in plating medium alone (columns 1, 2 and 4) or medium containing 20 μM GST-mS1ED (column 3). Cells were incubated at 37° C. for 2 h, fixed, permeabilized and stained with WOW1 and an Alexa 488-conjugated secondary. Panel insets are corresponding phase contrast pictures. Bar, 20 μm.
To verify that cell spreading induced upon Sdc-1 ligation correlates with αvβ3activation, the inventors relied upon binding of the ligand-mimetic WOW1 mouse Fab—a probe that detects activated, but unligated αvβ3 integrin. MDA-MB-435 cells adherent to mAb B-B4 display strong binding of WOW1 both centrally and within puncta at the spreading margin of cells (FIG. 2C). […]

[1] = system: MDA-MB-231 and MB-435 cells; test: Migration across coated filters (modified Boyden chamber), MDA-MB-231 and MB-435; format: cell-based, human; conditions: S1ED pAb 250 μg/mL or GST-mS1ED 20 μM; 16 h
Experimental: (§1) FIGS. 5A-B—Sdc-1ED Inhibitors disrupt αvβ3 integrin-dependent cell migration on VN. MDA-MB-231, MDA-MB-435 and MCF-7 cells in plating medium alone (black-filled) or in plating medium containing either 20 μM GST-mS1ED (open) or 250 μg/mL polyclonal mS1ED antibodies (gray-filled) were seeded on polycarbonate filters coated with either 10 μg/ml of VN (FIG. 5A) or FN (FIG. 5B) in a modified Boyden chamber. After 16 h, cells that migrated through the filter in response to 10% FBS in the lower chamber were quantified by colorimetric staining.
(§2) To test the role of the S1ED in αvβ3 integrin dependent signaling in another functional assay, cells were examined for their ability to migrate across VN or FN-coated filters in the presence or absence of S1ED pAb (250 μg/mL) or GST-mS1ED recombinant protein (20 μM). Migration of treated MDA-MB-231 and MB-435 cells across VN is suppressed 2- to 4-fold relative to untreated controls (FIG. 5A). MCF-7 cell migration across VN, which is αvβ1 dependent, is unaffected by either treatment.

[2] = system: MCF-7 human carcinoma cells; test: Cell spreading assay, MCF-7; format: cell-based; conditions: 10 μg/mL VN, 2 h; LM609 30 μg/mL; mAb 13 25 μg/mL; GST-mS1ED 20 μM
Experimental: FIG. 3—MDA-MB-435, but not MCF-7, human carcinoma cells display functional coupling of Sdc-1 and αvβ3 integrins on VN. Depicted are phalloidin-stained cells 2 h after plating on wells coated with 10 μg/mL VN (upper half) or FN (lower half) in plating medium alone or medium containing either 30 μg/mL mAb LM609, 25 μg/mL mAb 13, 20 μM GST-mS1ED or -mS4ED. Bar, 50 μm.
MDA-MB-435, but not MCF-7, human carcinoma cells display functional coupling of Sdc-1 and αvβ3 integrin on VN. To test whether activation of αvβ3 integrin activation on matrix is also functionally coupled to Sdc-1, MDA-MB-435 and MCF-7 cells were plated on either VN or FN (FIG. 3). MDA-MB-435 cells spread on VN and require αvβ3 integrins for this activity as spreading is blocked by mAb LM609. Although the MCF-7 cells spread on VN, this spreading is unaffected by LM609; these cells rely instead on αvβ1 integrins as spreading is blocked by either mAb 13 (FIG. 3) or αv-specific mAb M9 (unpublished data; de Vries et al., 1986). Neither cell type utilizes αvβ3 to respond to FN, rather both utilize […] that are blocked by either mAb 13 (FIG. 3) or mAb 16 (unpublished data).
To test whether GST-mS1ED specifically blocks αvβ3 integrin-dependent spreading or acts as a general inhibitor to all αv integrin heterodimers, MDA-MB-435 and MCF-7 cells were plated on VN in the presence of 20 μM GST-mS1ED. […]

[3] = target: αvβ3 integrin (human, on MDA-MB-231, MDA-MB-435, HAEC and HMEC cells) (human) (UniProt P06756); test: cell-based or functional assay
Sequence of αvβ3 integrin (human, on MDA-MB-231, MDA-MB-435, HAEC and HMEC cells) (human) (P06756 31-1048, chain 1 of 2): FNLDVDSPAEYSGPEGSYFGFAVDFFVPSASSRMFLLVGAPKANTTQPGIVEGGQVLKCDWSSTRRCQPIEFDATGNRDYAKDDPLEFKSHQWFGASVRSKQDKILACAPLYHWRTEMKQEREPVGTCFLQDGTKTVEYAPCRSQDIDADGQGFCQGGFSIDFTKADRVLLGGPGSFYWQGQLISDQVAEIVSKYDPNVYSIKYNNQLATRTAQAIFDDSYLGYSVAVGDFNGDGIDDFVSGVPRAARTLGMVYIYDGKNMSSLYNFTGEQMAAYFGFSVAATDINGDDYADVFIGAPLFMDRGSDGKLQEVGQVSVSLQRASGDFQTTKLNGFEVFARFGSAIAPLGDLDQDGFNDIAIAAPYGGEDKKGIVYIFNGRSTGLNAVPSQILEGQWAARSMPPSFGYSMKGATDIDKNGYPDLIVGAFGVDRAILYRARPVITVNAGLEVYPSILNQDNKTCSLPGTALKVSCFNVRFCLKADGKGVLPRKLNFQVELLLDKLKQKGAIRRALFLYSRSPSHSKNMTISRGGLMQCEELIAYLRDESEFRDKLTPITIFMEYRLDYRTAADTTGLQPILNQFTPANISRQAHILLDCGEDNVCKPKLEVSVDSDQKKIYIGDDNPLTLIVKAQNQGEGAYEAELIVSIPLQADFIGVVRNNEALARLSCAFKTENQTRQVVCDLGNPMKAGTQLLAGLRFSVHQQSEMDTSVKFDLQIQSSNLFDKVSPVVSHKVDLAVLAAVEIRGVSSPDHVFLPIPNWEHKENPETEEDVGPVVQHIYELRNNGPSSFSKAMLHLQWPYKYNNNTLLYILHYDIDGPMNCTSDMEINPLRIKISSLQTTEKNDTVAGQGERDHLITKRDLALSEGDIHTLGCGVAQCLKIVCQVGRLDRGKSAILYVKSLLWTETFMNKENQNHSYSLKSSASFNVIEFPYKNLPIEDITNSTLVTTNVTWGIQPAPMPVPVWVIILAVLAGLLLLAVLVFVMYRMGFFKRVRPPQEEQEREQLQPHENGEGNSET
Sequence of αvβ3 integrin (human, on MDA-MB-231, MDA-MB-435, HAEC and HMEC cells) (human) (P05106 27-788, chain 2 of 2, further chain): as the sequence (P05106 27-788) above

[4] = system: MDA-MB-231 human mammary carcinoma cells; conditions: no integrin ligand; Beauvais and Rapraeger, 2003; cited from earlier work
MCF-7 cells = test: Migration across coated filters (modified Boyden chamber), MCF-7; format: cell-based, human; conditions: S1ED pAb 250 μg/mL or GST-mS1ED 20 μM; 16 h
Experimental: as §1, §2

B1: GST-mS1ED: recombinant mouse syndecan-1 ectodomain expressed as a fusion protein with GST (protein)
chain: QIVAVNVPPEDQDGSGDDSDNFSGSGTGALPDTLSRQTPSTWKDVWLLTATPTAPEPTSSNTETAFTSVLPAGEKPEEGEPVLHVEAEPGFTARDKEKEVTTRPRETVQLPITQRASTVRVTTAQAAVTSHPHGGMQPGLHETSAPTAPGQPDHQPPRVEGGGTSVIKEVVEDGTANQLPAGEGSGEQDFTFETSGENTAVAAVEPGLRNQPPVDEGATGASQSLLDRKEVLG
modifications: left off: a dimerising Fc or GST
notes: recombinant mouse syndecan-1 ectodomain expressed as a fusion protein with GST
WOW1 binding (αvβ3 activation) (αvβ3 integrin): WOW1 staining is also lost
cell migration across FN [1]: neither inhibitor has any effect
cell spreading on VN [2]: Only the MDA-MB-435 cells fail to spread
migration of MDA-MB-231 and MB-435 cells across VN, 20 µM GST-mS1ED [3]: 2 to 4 fold
collaboration between Sdc-1 and αvβ3 integrins in cells adherent to Sdc-1-specific antibody [4]: disrupted
cell migration across FN (MCF-7 cells): neither inhibitor has any effect
cell migration across VN (MCF-7 cells): unaffected
